Reference: PMC5118228 (EJNMMI Research, 2016)
“And” between values parts separate entries of the source, which are not always exact repeats. Equal values may be shown once.

System: kidney
Assay: Renal dose-effect relation (logistic regression, LD50)
Type: in vivo, mice
Details: death before 90 days
Protocol: Dosimetry was performed according to the MIRD schema by using the spherical nodes S-factors from the Olinda/EXM software. S-factors were interpolated from the actual weight of the organs and tissue. All organs and tissue were assumed to be spherical with a density of […]. Mean radiation absorbed doses were obtained as a function-injected mass of peptide, assuming a homogeneous distribution in the tumor and organs. […] Owing to the short path length of α-particles, only the self-dose within each organ was included. The threshold for lethality was determined with renal absorbed dose and injected activity as indicators. Logistic regression analysis was used to determine the LD50 for presumed renal toxicity-related death.
Data analyses, graphs, and calculations were performed in Prism-5. Mann-Whitney t test was used to calculate the significance. The results of statistical tests were considered significant when P was <0.05. Biodistribution data were expressed as mean ± standard deviation (SD) and tumor volume data as mean ± standard error (SEM). Binary logistic analysis (forced entry method) was performed with SPSS software (IBM SPSS statistics, version 20).

SMILES: C[C@@H](O)[C@H](NC(=O)[C@@H]1CSSC[C@H](NC(=O)[C@@H](Cc2ccccc2)NC(=O)CN2CCN(CC(=O)O)CCN(CC(=O)O)CCN(CC(=O)O)CC2)C(=O)N[C@@H](Cc2ccc(O)cc2)C(=O)N[C@H](Cc2c[nH]c3ccccc23)C(=O)N[C@@H](CCCCN)C(=O)N[C@@H]([C@@H](C)O)C(=O)N1)C(=O)O [^213Bi-DOTATATE, metal not drawn]
- threshold LD5 kidney dose: 11 ± 4 Gy
- LD50 mean renal radiation absorbed dose (mice with and without L-lysine): 20 Gy and 20 ± 8 Gy
